# Source: patent publication US20200325231A1 (CURATORS OF THE UNIVERSITY OF MISSOURI, published 2020)
# Ends that are not written are not given here. * marks the point of attachment. Biotin = O=C1N[C@H]2[C@H](CS[C@H]2CCCCC(=O)*)N1
# B1: RK-11-Biotin (biotinylated mock peptide) (peptide)
# peptide: Biotin-GSGSGSFVLNWYRMSPSNQTDKLAA
# notes: also called Mock peptide RK-11-Biotin
# Molecular target: T1, Programmed Cell Death Ligand 1 (PD-L1) (human, UniProt Q9NZQ7 19-290)
# T1 construct: whole, on cells; Endogenous PD-L1 on cells or in fixed tissue sections; No recombinant PD-L1 was used; also called CD274
# T1 sequence (Q9NZQ7 19-290): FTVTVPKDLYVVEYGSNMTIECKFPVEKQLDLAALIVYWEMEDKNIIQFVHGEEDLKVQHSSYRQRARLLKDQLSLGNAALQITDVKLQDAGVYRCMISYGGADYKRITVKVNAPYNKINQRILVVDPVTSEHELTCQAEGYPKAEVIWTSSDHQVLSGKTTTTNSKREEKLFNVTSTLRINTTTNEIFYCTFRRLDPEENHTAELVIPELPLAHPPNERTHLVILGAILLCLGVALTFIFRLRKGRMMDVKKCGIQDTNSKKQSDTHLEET
# Assay: IHC on FFPE placenta, biotinylated peptide, streptavidin-HRP/DAB
# Excerpt: To detect PD-L1 in FFPE tissues, manual IHC techniques were employed with a biotin-conjugated version of peptide RK-10-Cy5 and compared with Ventana PD-L1 (SP263) Rabbit monoclonal Primary Antibody stained on a Roche Benchmark Ultra autostainer. Seven PD-L1 expressing NSCLC patient tissues were obtained from the MU OneHealth tissue bank and de-identified according to IRB protocols. Paraffin-embedded patient tissue slides were baked overnight, then de-waxed and rehydrated according to standard protocols. Tissue sections were then subjected to antigen retrieval in EDTA at 95° C. for 20 minutes in EDTA […]. The solution is then cooled for an additional 20 minutes on the bench top prior to buffer rinse. Tissues were then incubated with 15 biotinylated peptide for 2 hours in a humid chamber at RT. After 2 hours, slides were washed with buffer and treated with PIERCE™ High Sensitivity Streptavidin-HRP (1:200 dilution) (Sigma) for 30 minutes at RT in a humid chamber. Once this was complete, slides were again washed in buffer then treated with DAB (3,3′-Diaminobenzidine; Sigma) for 10 minutes. Slides were again washed in buffer, then dehydrated using graded alcohol and xylene and counterstained with hematoxylin. Slides were then imaged using bright-field microscopy on a Leica DM5500. […]
binder,measurement,value
B1,binding result,binds
